T1: huRANTES immobilized on glycosaminoglycan (biotin labeled heparin) (human, UniProt P13501 24-91)
T1 construct: also called huRANTES immobilized on GAG; huRANTES in the context of GAG
T1 sequence: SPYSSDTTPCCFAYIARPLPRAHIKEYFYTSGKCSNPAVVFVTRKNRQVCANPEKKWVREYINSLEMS

T2: recombinant human RANTES (huRANTES, Peprotech) (human, UniProt P13501 24-91)
T2 sequence: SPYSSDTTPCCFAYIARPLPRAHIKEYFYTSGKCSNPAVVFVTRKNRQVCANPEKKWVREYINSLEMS

T3: native human RANTES produced by THP1 cells (human, UniProt P13501 24-91)
T3 sequence: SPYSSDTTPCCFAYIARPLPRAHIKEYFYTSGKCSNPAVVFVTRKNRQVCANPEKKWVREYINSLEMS


Tests used:
[1] = molecular target: T1, huRANTES immobilized on …; assay: ELISA: biotin-heparin on streptavidin plate, huRANTES captured on the heparin, IgG detected with anti-human IgG Fc-HRP, OD450; antibody concentration not given
[2] = molecular target: T2, recombinant human RANTES (huRANTES, …); assay: cell-based or functional assay
[3] = molecular target: T2, recombinant human RANTES (huRANTES, …); assay: cell-based or functional assay; remark: listed apart in the source
[4] = molecular target: T3, native human RANTES produced by THP1 …; assay: cell-based or functional assay

binding result [1] | Chemotaxis IC50 (nM), 1 nM huRANTES; L1.2-hCCR5 cells; IgG1 format [2] [nM] | Chemotaxis IC50 (nM); L1.2 cells expressing hCCR5, 1 nM huRANTES; scFv format [3] [nM] | Binder | other results
no binding | 1.3 |  | H11 antibody, IgG1 format (antibody, V domains shown) VH: QVQLVQSGAEVKKPGSSVKVSCKASGGISDNYALSWVRQAPGQGLEWMGGFIPLVDTTNYAQRFQGRLTITADDSMSTVYMELRSLRSDDTAMYYCAREQVAVGPGPTSDRGPDGLDVWGQGTMVTVSS VL: QSVLTQPSSVSGAPGHRVTISCTGSNSNLGADYDVHWYQQLPGSAPKLLIYDNNIRPSGVPARFSGSKSGTSASLAITGLQAEDEADYYCQSYDTGLTSSDVIFGGGTKLTVL | 
no binding | 2.2 |  | E7 antibody, IgG1 format (antibody, V domains shown) VH: QVQLVQSGAEVKKPGSSVKVSCKISGGISDNYALSWVRQAPGQGLEWMGAVIPLVETTSYAQRFQGRLTITADDSLNTLYMELGSLRSDDTAMYYCAREQVAVGPGPTSNRGPDGLDVWGRGTMVTVSS VL: QSVLTQPPSVSGAPGQRVTISCTGSSSNIGDGYDVHWYQQLPGTAPKLLIYGNSNRPSGVPDRFSGSTSGTSASLAIRGLQSEDEADYYCGTWDDILNGWVFGGGTKLTVL | 
no binding | 7 |  | D1 antibody, IgG1 format (antibody, V domains shown) VH: EVQLVQSGPEVKKPGATVKISCNVSAETFTDYYIHWVKQAPGRGLEWMGLVDSEEDGETLFAETFRGRVALTADRSTNTAYMELRSLRHDDTAVYYCAAEYGEYGFFQSWGQGTLVTVSS VL: QSVLTQPPSVSGAPGQRVTISCTGSSSNIGADYDVNWYQQLPGTSPKLLIYGDINRPSGVPDRFSASKSGTSASLAITGLQAEDEADYYCQSFDNSLSGSVIFGGGTKLTVL | 
no binding | 4.8 |  | CG11 antibody, IgG1 format (antibody, V domains shown) VH: QVQLVQSGTEVKKPGATVNVSCKISGHLFTDYYIHWVQQAPGKGLEWVGLIDPKDGEIQYAEKFQARVTITADTSTDTVYMELNSLRSEDTAVYYCATEVLSGIRVFPFDPWGQGTLVTVSS VL: QSVLTQPPSVSGAPGQRVTISCTGSSSNIGAGYDVYWYQQFPGKAPKLLIYDTNNRPPGVPDRFSGSKSGTSASLAISGLQTEDEADYYCQSYDIALSNSNVVFGGGTKLTVL | Calcium Flux IC50 (nM), 10 nM rhuRANTES; L1.2-hCCR5 cells; IgG1 format [2]: 9.5 nM
no binding | 8.7 |  | H6 antibody, IgG1 format (antibody, V domains shown) VH: QVQLVQSGAEVKRPGASVKVSCKVSGNTLSKQSMHWVRQAPGKGFEWMGSSNPEDDETLYAKKFQGRVTMTEDTSTDTAYLELSSLRSEDTAVYYCATDSQGFYYYYGMDVWGQGTLVTVSS VL: QSVLTQPPSVSGAPGQRVTISCTGSSSNIGADYDVHWYQQLPGTVPKLLIYDNINRPSGVPDRFSGSKSGTSASLAITGLQAEDEADYYCQSYDSSLSGVLFGGGTKVTVL | Calcium Flux IC50 (nM), 10 nM rhuRANTES; L1.2-hCCR5 cells; IgG1 format [2]: 9 nM

The remaining lines, values behind:

Binder | binding result [1] | Chemotaxis IC50 (nM), 1 nM huRANTES; L1.2-hCCR5 cells; IgG1 format [2] [nM] | Chemotaxis IC50 (nM); L1.2 cells expressing hCCR5, 1 nM huRANTES; scFv format [3] [nM] | other results
A9 antibody, IgG1 format (antibody, V domains shown) VH: not shown VL: NFMLTQPHSVSESPGKTVTISCTRSSGSIADNYVQWYQQRPGSAPTTIIYDDDQRLSGVPDRFSGSIDTSSNSASLSISGLRTEDEADYYCQSYDDSNDVFGGGTKLTVL | no binding | 1 |  | Calcium Flux IC50 (nM), 10 nM rhuRANTES; L1.2-hCCR5 cells; IgG1 format [2]: 3.3 nM
G2 scFv (scFv) QVQLVQSGAEVKKPGASVKVSCRASGYALTELSIHWVRQAPGKGLEWMGGFDPEDGETIYAQNFQGRVIMTEDTSTDTAYMELSSLKSEDTAVYYCATDLTGSRDSWGQGTLVTVSSQSVLTQPASVSGSPGQSITISCTGSRSDIGYYNYVSWYQQHPGKVPKLIIYDVTERPSGVSDRFSGSKSANTASLTISGLQAEDEADYYCSSFSSGDTFVVFGGGTKLTVL |  |  | 62 | 
H6 scFv (scFv) QVQLVQSGAEVKRPGASVKVSCKVSGNTLSKQSMHWVRQAPGKGFEWMGSSNPEDDETLYAKKFQGRVTMTEDTSTDTAYLELSSLRSEDTAVYYCATDSQGFYYYYGMDVWGQGTLVTVSSQSVLTQPPSVSGAPGQRVTISCTGSSSNIGADYDVHWYQQLPGTVPKLLIYDNINRPSGVPDRFSGSKSGTSASLAITGLQAEDEADYYCQSYDSSLSGVLFGGGTKVTVL |  |  | 25 | 
1D9 antibody, IgG1 format (antibody, V domains shown) VH: QVQLVQSGAEVKKPGASVKVSCKVSGYTLTEFAMHWVRQAPGKGLEWMGGFVPEDGETIYAQKFQGRVTMTEDTSTDTAYMELSSLRSEDTAVYYCATDPLYTPGLEPWGQGTTVTVSS VL: SYVLTQPPSVSVAPGQTARITCGGNNIESKSVHWYQQKPGQAPVLVVYDDSDRPSGIPERFSGSNSGNTATLTISRVEAGDEADYYCQVWDSNTDHWVFGGGTKLTVLG |  | 0.35 |  | Chemotaxis IC50 (nM), 0.2 nM huRANTES; L1.2-hCCR5 cells; IgG1 format [2]: 0.038 nM; Chemotaxis IC50 (nM), native huRANTES from THP1 cells; L1.2-hCCR5 cells; IgG1 format [4]: 0.033 nM
C8 antibody, IgG1 format (antibody, V domains shown) VH: QVQLVESGGGVVQPGRSLRLSCAASGFTFSSYAMHWVRQAPGKGLEWVAVISYDGSNKYYADSVKGRFTISRDNSKNTLYLQMNSLRAEDTAVYYCARETFPHYYYYYMDVWGRGTLVTVSS VL: SYVLTQPPSVSVAPGQTARITCEGDDTDIGTVNWYQQKPGQAPVLVISEDGYRPSGIPERFSGSNSGNTATLTISRVEAGDEADYYCQFWDVDSDHPVFGGGTQLTVLG |  | 2.1 |  | Chemotaxis IC50 (nM), 0.2 nM huRANTES; L1.2-hCCR5 cells; IgG1 format [2]: 0.49 nM; Chemotaxis IC50 (nM), native huRANTES from THP1 cells; L1.2-hCCR5 cells; IgG1 format [4]: 1.6 nM
2D1 scFv (scFv) QVQLVQSGAEVKKPGASVKVSCKVSGYTLNDFAMHWVRQAPGKGLEWMGGYVPEDGDTIYAQKFQGRVTMTEDTSTDTAYMELSSLRSEDTAVYYCATDPLYSGSLSYWGQGTTVTVSSSYVLTQPPSVSVAPGQTARITCGGNNIESKSVHWYQQKPGQAPVLVVYDDSDRPSGIPERFSGSNSGNTATLTISRVEAGDEADYYCQVWDSNTDHWVFGGGTKVTVL |  |  | 1.3 | 
E10 scFv (scFv) QVQLVESGGGVVQPGRSLRLSCAASGFTFSSYAMHWVRQAPGKGLEWVAVISYDGSNKYYADSVKGRFSISRDNSKNTLYLQMNSLRAEDTAVYYCARETFPHYYYYYMDVWGKGTMVTVSSSYVLTQPPSVSVAPGQTARISCGGGNFDDEGVHWYQQTPGQAPVLVVYDDTGRPSGIPERFSGSSSGNTATLTISRVEAGDEADYYCQAWDSSNDHPVFGGGTQLTVL |  |  | 9.4 | 

— US20120201826A1 (NOV IMMUNE S A, published 2012)
